In the DeepSol protein solubility set:

Assay: soluble on expression in E. coli; label from the status in PepcDB or PDB records

Sequence	soluble on expression in E. coli
MAHHHHHHMDTSARRCFVEVYTDGCDEPRLLQLEPTVKFHNVLRRFDKDGDLYWGDHRIDPQTTPVAVGMDCGVDKANTLWFIPALPRAKPCGVSRVDSTAPLGSPPPVDATEGPALRPARGTSLPAYFDDRAAPWHSSGDHAARGSLIRAWMASASAATTPSWYSRPRLLSPVPLSLPRSAVRVPHTQVQPPSGMPTDPIMHAAGGSRHTGAPVAALEAHGGEKIAPVRRLCAAPAPRAPSPPHSTVPVRRNAPVCIDPHVLVDDTSDAVEALQTELRHLSSEMRAMRLRNPLDYNSVTPMRQVVVRPAGMDAAPAIASPICLSMAEPSVEELATELHDKQMHRLYKQRHLYLTHDFHV	not soluble
MAHHHHHHMDVLGTCTALVATLQEPQEDIQSRDHYELVLLDGPSLPIVGVSSTGGLLAATSAASAAAAATAAVAAADDTMSSTEAAKESASDSDAAVTRVKTTIDLHQAFARFQRTDSAENYLLDVVYVGDCTMMLIRNGRVCYVTEEQAHQLDYPYQLGTGSNDTPKDGVRLLIPVEKGDIVVMGTDGIFDNLYPHRIVELIWPHLERVFSQHGYLQALGGAETAKAPANAVSYVKNRNLRTLLDDIMAALDMGANAVMADAMTVSRDVRCDSPYASKCIENGALFEGGKPDDMTLLISVIGESDDGEPSEQFSGSETAFPLPYRDWP	not soluble
MAHHHHHHMEDDFHVDEEYIKQLSEKYKNAEHPLFMDELPANIEENEDLHALYNLMIDDEDELSLAKNFKQVGNDYYQDGTKYFEDAIISYTKGIDILTKYWEDKNLEKRKAERGKLRNDSNSSPTEGTKSNAQNVSSQRISNGVSIENGESTAGEEAGKPAVKGDSTSSRKGTEITVLNGLHNEGGHRDDLRDNEIRGVLADLHCNRAIVHYKKKRYVKCLQDCRKAYAFNQTKFKSVYYSILCSYHLELYKDAHMYVNRFEDMTKSIDLKNHINLNEYEKMKEIIFKKDEDILERKKVDQNEKRKAEENEKNVANLVQDILHKRNIQMVENVYQQGNNVIPVLYVDTSMYIHFTVFLLYFERAIMETIIDFAENQSIMDHYDIVKKNKNNHLLFCYIEFPYDVFFMIHSSSYICDVLNRAKLFSPILSIHIIENEEANRQFRSGKTIKSIPL	not soluble
MAHHHHHHMEINISNITNSSNNKKERVNIHSHIKGLGVNTNIYLHENEISLSDEKYSMFFDNSCGLVGQFKAREASLFLVDLIKQKKLAGKCILLAGPSGSGKSALAIGISREINRKMPFVFLSGSEVYSNEIKKTEVILEAFRKSIHIKIKEEKLVYEGEVVDMVVEENECLYSLNKAKQINAIIITLKSVKGSKTLRLAPKIHEQIAREKIKIGDVIYIETNTGHVKRLGRCNDYAKEYDIEFDEYVSLPKGEVHKKKEVVQQISLHDIDLANANPTVGEDLASVLNSYLRPKKTEITEKLRVEINKTVNKFLESGLAEIIPGVLYIDEAHMLDIECFSYLNRAIESPLAPILIMATNRGICTVKGTDNIEPHGIPVDLLDRLIIIKTFPYTLKEIVQILALRAQTEKINITEEGMNYLAKIGIQSSLRFAMLLLEPSRILATLEGNTIIDIKHIEQADELFMDAKTSAHRVVDQSNKFVN	not soluble
MAHHHHHHMEQLNDDDERENLYFVDHGRPKYKHTDLLAMLRDAQSAIIRFSEENRDIIADAVNFASTSERANTLRKLEEAYLGIVKVQAPMVRCSRPAFRKLCRLWGTDVSYTHMIMADSFTCSDAARHADFSMYAGEERLVAQIASCSGPVAAEAATLLAPYCDAIDLNCGCPQRWIIKEGLGSALLQKPEVVADMVRCIHNGLSGGVDLPCVVKMRVSNDVGRSVDFARQCEAAGCGWITVHGRTPSCSAHAPVRLDAIRTIRECVSVPVVANGGVNNPQTALKTSLTTGAGAVMSATGLLANPACFYVPREGELLLFAPQRRGVDVALEASMGPCRGADEGASTAGSENSAWLKGLPGCPVEVISDFIRLSCVTDLASKATSMHLLKMGGNYLSPTERVFLAQMHSSFSVVSALQQLGLYTQDGKFRVVESVT	soluble
MAHHHHHHMERGKNPMEAELNRAPQEVSLSAFSLLFSEIVQYCLWKSKRGYRIEDSLHEMGLRVGYKLNEYLPYKNKTKRCVNIISILTFLSKHLWKYLFQHSSDLLKSQDSIYEYMLCDKNILLNRFISVPKDYGNINCASFAAGIVEGMLCSAEFQAEVTAHTVYEDEKNFNTTIFIKFYPEVVNRERGEK	not soluble
MAHHHHHHMERSLYYTPQLLWLQVMDRMPYEFTHYFVSSPPPHHEAMLSGIREQYGRPYSAAKPFDVELLGRLWNGHSRVMFATDNLVFSAVDHSVSDRWKEMGFQGTDPSTDFRGAGIFGLAQLVYLVEHHPEEWSAILTPDFMAAAAGLNVTMRLATMLGINSSLNQLSSSVLSKYSAREARLQLCRFIFDPSVDVATQRLSEVYCFAMRLLHYRWMRSTRNIMEFNQQLSSMYTELDRLLFLCNTLEELCSLL	not soluble
MAHHHHHHMFRDGYSLDSVCHRLRYEIGVPHDGVYLHEPPGGSFAAVTQFGVAVGVTREQLPHASRHYNVHALIFDDRGYHALDELPRLSVAPQAYLHRILLRCVSGDEAAVAQRLRHLSSNGFINYFGLESFGIGSNTLFDMAAFAFRREPHRSVGAYLQTLAECSPLHHQPYLSYANAEESTVAGAVAEWLRVCERAKLPRETRELLRKLHCYHLSQCHPSDATTISMEDVWKACPIMHRAEQSAAAFVWNAMASQRLLSFGSRPVKGDLVCRIGNRGAIEIAEVASDTDASHYTIDDVVLPIPCGGTPAAELRYPTHSVNEAFFTQFAKKHSLSFLFNSGVDPTPRAAATLGPYRRLVSRPRNLQAAVLQDPSSCAALKSDLFLLQEHQPTEGWSLDYRQRVREPSNFNVSERFRERMSCIRKRRAGEHSVALAFVLPAGSSPWVALREAFHMHYGTFHDFYGVS	not soluble
MAHHHHHHMFYLFDEKAMSTNIKVKSVKRLVYNRHIKGDEAVLSLDLSYDMSKAFNWNLKQLFLYVLVTYETPEKVKNEVIIQDYIITNKNVAKRTYKNFITKYSLKDYNNGLRNNNINLQVCYKYMPIVGLSRSYEGTKISYKLPAEYFDNLPSNYPLYYPDK	not soluble
MAHHHHHHMGKVRKNKQVRNLLKSLTERVDTDDGENEYARLTQTPVVSMRLSKVKFKTSLQNVLVEPYTERVKDFVAKNNYEIRMERALLDEIKNANQNMNRIGDVLSARGGKQGKTRDNHIIMSRYFHYLKDKDEDFGLSFFPVYKTFKSNASHFGDNLSSSLYPHELLQMGSMSSESFLKNSPKRISFPERGDS	not soluble
MAHHHHHHMGKYAVVVIGPAGSGKSTLCTVVAEHYATKGRSTHICNFDPAAEDLPYDPSIDIRELISLEDAMEGKGLGPNGGLVFCMEYLLGQGEVWLCDQLGDHEEDFIIVDMPGQLEVLSHIPAVPGFVRLLERSGFHVVVLFLLDALAATADAGKFVSGCTFALSCMVCFECPFMNVLTKCDLLPPAIREEALDHFCTCDFDYLNTKPLPERWREMVRTLAAVIFDFNLVTFRPMDNTDVAYVGNLCYLIDEALQVVDDAEVNDRDLPDASEAGEAVEDTMDWKHY	not soluble
MAHHHHHHMGTLEAQTQGPGSMNLDDIGSGSNAPEEVNVVIEVSQDSHPVKYEFDEKNGALWVDRFLPTAMYYPCNYGFIPNTIAGDGDPVDVLVLARFPVMPGAVICVRPVGVLMMNDEKGEDAKVLAVPATKVDQYYGNIVNYSDLPSSFLDSISHFFSFYKKLEKDKFVSVGCWQDAASAKELIRSAIIAAKKGEN	soluble
MAHHHHHHMHTFYTIRYPPPNSQKGGEDSQPIRVTNKAMESLLFCIVHSIEFQSPLQPSRPQLGSSIGSSGKDSITDDEAYVRPVENSSMLLGNVTYVSRSKHKPSVLASLHTAVEAARAIQIPEKSSQVPFELRVRLLRRHRGWLWHDSRPLVEWVFRMAKTREEFSFSTTHGDASERPRPRTSPRATNAHANVVRATGGGGVHSRSREDGLVCSNDPEQIRQVLQFILKHSYDAIDLNTYADFRSGELIFDVSVQEV	not soluble
MAHHHHHHMILDLFDLCATPYAKRRSHLHSFMSELEDRLFRAEMALTQRRRSAVSPKEKRALGAVRPINVVVQEVLRETPILCFDEFQTFDVAHAALLAAFFSEAFREGLFFITTSNRPPEDLCRVSASFNAFLPVLRQHCHVVHCADIRDYRVKEAVERHHQLIFLHPNTKTNVERCCGVSSMLSGLVAESLHGSRRTHCGTTAAAS	soluble
MAHHHHHHMINSVYHSKKACVEALRAVERLQPSWWTPPCSEFLHRVEQTPTVTAQPNQKTLIVLEGIDGVGKSLVAQSLIEKLGDSAVLIRTPHPDLSGIRETFRAQTEETARAFYSAANYLAAWDAFHATKERKFVVFDRWWCSTCAMALANSCRLAALPAAGDAVYQWPQDLPPFQLGALLYVEEHIRQARIRQRAPEDAEERRLRAQQEMREVAMEAYRRFGLLNEVHVATYGVAVNRILALMTEKGLPHSATPFSAEELAALRQI	soluble
MAHHHHHHMKAKGPVKIVLFGAPGVGKGTFAEILSKKEKLKHINMGSILRDEIKNKTTIGREIHKVVTSGNLVADELVVKIVKGEIAKVTAQDGHFKGFILDGFPRNLLQCKQLVEITSIDLFVNIHMPRHILLKKIMGRRICHECNRNFNIAHIRDDPYDMPPILPPPECEKCKGNPKLQRRSDDEEEIVAHRLDTYESTNSHLINFFKNSNCNLVDFEIQRGLRDFDSFYRVVGQHL	not soluble
MAHHHHHHMKGLHIRPMNDSRLCERIKVLDDYCFPVKYTESYYNDYVRNSFHEFNQLAFYHDILVGSITCRLEKTATDGEHVLYIMTIGVLEAYRHLRIGSRLLQTVLSAVHNDTRNRIVAVTLHVQVGSPALKLYRQFNFEEVQLVENYYTDLDECNAILLRRVVPQPHFEHHKKFK	not soluble
MAHHHHHHMKIVPPNFGYVEERIFRCGAPEPCHYAFLASLKLRTCVLLTESHDEAFVRWLRENNVHTVCPLYDGSRMNGLGDKMGCVGYHTGSMTLSEPVVVDILHVLVDPINYPLLLTCSVGRYRTGIVCGCLRKLQGWSLVSILEEYRRYAQDKGRAENEEFIELFDKDLVNLELKDGRRPTILYPYDV	soluble
MAHHHHHHMKLNIAYPRNGTVKQFEISDEVLRRVQLQDYRLGNEVDGAIFGSEFKGYIFRLRGGSDKDGFPMVPGVLASSRVSLLVKRGAIGFNTFRGYQGERRRKNVRGCVLASDIALVNVTISKVGDQPIEGVTDTTAPRRLGP	not soluble
MAHHHHHHMKNKSIRKERQSGETLEDNIEEINYCIKVIPKDKINSKGNGAIRLSNLDMNRSNNGNYYNQNNNVENINDFETECRNYIEDILKIDEYVKLPNSINNEQDKIKWKKAHSLRNRMKEYDLITRTRLYQSNSVNNKAKLNRERYIILNKIPRYREAFPSIMNNTSTDKIKEDIIRTYLKTHAAYFLSQNKKNSNLSLKNMGRNTYFSFRKKSDDRNNSLINYNKHMNDKSKSVEHNNCPNLKKKDRSYNLWKRITVDDIKNTHFTPTEKQYLKDYNIFLNDAFNNFKINQNNNKRQLNVKNQKNIPNYDMINNKIYGHIKNNANNNLYINNQKREDAYIINPSQNNIITSPNEEQYPYFNNYSYSDKNKNLSTYNTEGKRNIYTNDVKSNTNYQHSNNSNYSDESLNMFSNSSTSIYEKYNLKDKNFVLKRDRYALLGKIKNNKEIEVKLVLNKV	not soluble
MAHHHHHHMKNVKVELDGKVYTILYEPKKVKFSDLDPLKIMFHSNHVKHSGNSVIRYLVKLTSRDISKMDYVVRHVDISYDRPLKYEDSYKIIGGITSYGSTSLRITLFGTNSSSKNGCSSNLGVKNILRNGACAHVDEAAKPEEGHEKASSSGEFKSEHSEVATRRDPNKKATKSDHHVEKLLAKYKEDNADAVIKLCRNKMNEIASQKHCINYFTAHYTLVRVNKEGAKEPIQEKYKNEFPPIEVEKLKELVSVFC	not soluble
MAHHHHHHMLCVSVAKDGFAIVLTGLDTKRRAPPHQQRLSRNVCFHQTKAKEFVARFHQPCFLAWSHRTIGHPDALQDGARRRQEYKPSHSHPFFRCNEGAHQHMCG	soluble
